Several values for one entry are separate records, joined by “and”; a condition that tells them apart may be missing. Identical values can stand only once.

Substrate in data set [1]: c1ccc([C@@H]2CO2)cc1
Put plainly: Kinetic parameters of purified sEEH by GC analysis with (R)- or (S)-styrene oxide. In kind it is biochemical, Sphingopyxis alaskensis. The following applies: other: 100 mM potassium phosphate pH 8.0, 30° C. The procedure: (§1) Kinetic parameters of the rEEH1, rEEH2, rEEH3, sEEH, nEEH, and rEEH were determined by a GC analysis using (R)- or (S)- styrene oxide substrate. 100 ul of purified EHases were mixed with various concentrations of (R)- or (S)- styrene oxide in a 10 ml tube containing 1 ml of potassium phosphate buffer (100 mM, pH 8.0), and shake-incubated at 200 rpm and a temperature of 30° C. The extraction mixtures were extracted with 2 ml of hexane, and enantiomeric excess [ee; ee=100×(S−R)/(S+R)] toward enantiopure styrene oxide was analyzed with a chiraldex gamma-cyclodextrin trifluoroacetyl(G-TA) capillary GC column. Wherein, the FIG. 8 was diagramed with GC analysis for the hydrolyzing activities of enantioselective EHases (rEEH1, rEEH2, and rEEH3) toward racemic styrene oxide.
(§2) Kinetic parameters were estimated by non-linear regression analysis using a Sigma Plot program, and various substrates as depicted in FIG. 1 were also tested for the enantioselective hydrolyzing activity by rEEH1, rEEH2, rEEH3, sEEH, nEEH, and rEEH.

Substrate in data set [2]: c1ccc([C@H]2CO2)cc1
The description is as above. To be noted: other: 100 mM potassium phosphate pH 8.0, 30° C. In kind it is biochemical, Sphingopyxis alaskensis. The procedure: as §1, §2

Data set [3] is described as follows: Enantioselective hydrolyzing activity of purified EHases toward EX. In kind it is biochemical. The procedure: as §1, §2
Data set [4] can be described thus: Kinetic parameters of purified EHases by GC analysis, (R)-styrene oxide. In kind it is biochemical. To be noted: (R)-enantiomer of styrene oxide, Table 5. The procedure: as §1, §2
Data set [5] can be described thus: Effects of pH and temperature on the EHase activity of rEEH1, rEEH2 and rEEH3. In kind it is biochemical. As for the experimental part: The effect of pH on the EHase activity was measured with 50 mM sodium acetate-acetic acid buffer (pH 4.0 and 6.0), 50 mM MES buffer (pH 6.0 to 7.0), 50 mM Phosphate buffer (pH 7.0 to 9.0), and 50 mM Glycine buffer (pH 9.0 and 10.0), and the optimum reaction temperature on the EHase activity was measured over a temperature of range from 10 to 70° C. at pH 7.5.

Data set [6] in a line: Kinetic parameters of purified EHases by GC analysis, (S)-styrene oxide. In kind it is biochemical. To be noted: (S)-enantiomer of styrene oxide, Table 5. The procedure: as §1, §2
The nature of data set [7]: Enantioselective hydrolyzing activity of purified EHases toward ECH. In kind it is biochemical. The procedure:
as §1, §2

Substrate in data set [8]: c1ccc([C@@H]2CO2)cc1
Put plainly: Kinetic parameters of purified rEEH2 by GC analysis with (R)- or (S)-styrene oxide. The following applies: other: 100 mM potassium phosphate pH 8.0, 30° C. Format: biochemical, Erythrobacter litoralis HTCC2594. The procedure: as §1, §2

Substrate in data set [9]: c1ccc([C@H]2CO2)cc1
The description is as above. In kind it is biochemical, Erythrobacter litoralis HTCC2594. To be noted: other: 100 mM potassium phosphate pH 8.0, 30° C. The procedure: as §1, §2

A short description of data set [10]: Enantioselective hydrolyzing activity of purified EHases toward GPE. Format: biochemical. As for the experimental part: as §1, §2
Data set [11] is described as follows: Enantioselective hydrolyzing activity of purified EHases toward EB. In kind it is biochemical. The procedure: as §1, §2
Data set [12] can be described thus: Enantioselective hydrolyzing activity of purified EHases toward SO. In kind it is biochemical. The following applies: for enantiomer preference in hydrolysis of styrene oxide, in words: purified enzyme. As for the experimental part:
as §1, §2

A short description of data set [13]: Optimum activity conditions of sEEH, nEEH and rEEH. Format: biochemical. The procedure: After cloning the genes into pET-24a (+) expression vector, the vector was introduced into BL21-CondonPlus(DE3)-RP (Novagen), and then separated by SDS-PAGE. […] Also, the optimum activities of sEEH, nEEH, and rEEH occurred at neutral pH and mesophilic conditions (30 to 40° C.).

Substrate in data set [14]: c1ccc([C@@H]2CO2)cc1
Nature of the data set: Kinetic parameters of purified rEEH by GC analysis with (R)- or (S)-styrene oxide. Format: biochemical, Rhodobacterium sp. HTCC2654. To be noted: other: 100 mM potassium phosphate pH 8.0, 30° C. As for the experimental part:
as §1, §2

Substrate in data set [15]: c1ccc([C@H]2CO2)cc1
The data set is described as above. Format: biochemical, Rhodobacterium sp. HTCC2654. The following applies: other: 100 mM potassium phosphate pH 8.0, 30° C. As for the experimental part: as §1, §2

Substrate in data set [16]: c1ccc([C@@H]2CO2)cc1
Put plainly: Kinetic parameters of purified nEEH by GC analysis with (R)- or (S)-styrene oxide. Format: biochemical, Novosphingobium aromaticivorans. The following applies: other: 100 mM potassium phosphate pH 8.0, 30° C. As for the experimental part: as §1, §2

Substrate in data set [17]: c1ccc([C@H]2CO2)cc1
The data set is described as above. Format: biochemical, Novosphingobium aromaticivorans. The following applies: other: 100 mM potassium phosphate pH 8.0, 30° C. As for the experimental part:
as §1, §2

B1: Sphingopyxis alaskensis epoxide hydrolase sEEH (Sp), SEQ ID NO: 28 (Sphingopyxis alaskensis RB2256) (protein)
chain: SSAGPSTAITVSAAAAVAAPQDESIRPFHVSIPEEALTDLRRRLAETRWPDREKVSDASQGVQLDRLEPLVRYWGTDYDWRKGEARLNAVPQFITTIDGLDIQFIHIRSKHKGAMPLLMTHGWPGSPFELLKTVGPLTDPTAHGGKAEDAFDLIMPTYPGYGFSGKPNEAWDPARVARAWDVLMKRLGYKNYVSQGGDWGAIISQVLAVQAPEGLLGIHTNMPGTVPPGVLKLVRAKQPAPDSYSPEEKIAYAGLETFYGKGFGYAEMMNTRPQTLGYGLSDSPVGLAAFLYEKIATWTDSGGNPESVLTRDEILDNITLYWLTNTGTSSSRSYWDAAQGPGGPFNAIEISKVPVAVTVFPGEIYRAPRSWGEKSFKKLIYWNEVDKGGHFAAWEQPELFAAEIRAAFRPLREKK
In the case of B1, in data set [1], the Km – broadly, the concentration of substrate that gives half-maximal velocity – amounted to 4 ± 0.3 mM; the Vmax (usually the rate approached at saturating substrate) came to 8.9 µmol/min/mg; the kcat – broadly, the maximal rate divided by the concentration of active sites – came to 7.42 s⁻¹; the kcat/Km (commonly the second-order rate constant that governs catalysis at low substrate concentration) was 1860 M⁻¹ s⁻¹. Besides, in [2], the Km is given as 5.25 ± 0.3 mM, the maximal velocity (Vmax) came to 12.1 µmol/min/mg, the catalytic constant (kcat) worked out at 10.1 s⁻¹ and the specificity constant (kcat/Km) stood at 1920 M⁻¹ s⁻¹.

B2: Erythrobacter litoralis HTCC2594 epoxide hydrolase rEEH2 (EEH2), SEQ ID NO: 15 (Erythrobacter litoralis HTCC2594) (protein)
chain: MAGPSLGEWKAKAQHFAYDGLQIAFWTGGKPDARPLLLVHGYPTASWDWHRVWETLGSKYHLVAPDMIGFGLSDKPRSGYSIHRQADMHVALLDHLGIGAFDALVHDYGVSVGQELLARRAERSAAQGLGQTVFLNGGIFPDQHRPRPIQKLGTSPLGFLVGLLTNREKFGRSFSEVFGPDTQPGAQELDEFWDLVSHNGGNRIMHKLLHYIADRKEHAERWFDALRIAQGDIGLINGALDPVSGRHAYEAWRERLPDARHHLIPTVGHYPQVEDPQTVSRVTLDWLAR
notes: soluble-EH-like alpha/beta hydrolase
In the case of B2, the “Hydrolysis rate EX (R)” value in data set [3] ((R)-enantiomer) was 0.07 (×10^−2) mg/min. Besides, in data set [3] ((S)-enantiomer), the “Hydrolysis rate EX (S)” value was 0.07 (×10^−2) mg/min. For the same molecule, the “kcat Km” value in [4] turned out to be 300 M⁻¹ s⁻¹. The “optimum temperature (maximum hydrolysis rate)” value in data set [5] (10 to 70° C. at pH 7.5) is 55 °C. In addition, the “optimum pH” value in data set [5] (activity toward styrene oxide, pH 4.0 to 10.0) is 7.5. In [6], the “kcat Km” value is 200 M⁻¹ s⁻¹. Besides, in [7] ((R)-enantiomer), the “Hydrolysis rate ECH (R)” value is listed as 0.23 (×10^−2) mg/min. The “Hydrolysis rate ECH (S)” value in data set [7] ((S)-enantiomer) is reported as 0.23 (×10^−2) mg/min. For the same molecule, in data set [8], the Km is 5.49 mM and 5.4 mM; the Vmax was 0.11 µmol/min and 0.1 µmol/min; the kcat turned out to be 1.6 s⁻¹. In [9], the Km was 6.18 mM and 6.1 mM; the Vmax was 0.12 µmol/min and 0.1 µmol/min; the kcat was found to be 1.7 s⁻¹. For the same molecule, the “Hydrolysis rate GPE (R)” value in data set [10] ((R)-enantiomer) is 0.06 (×10^−2) mg/min. In data set [10] ((S)-enantiomer), the “Hydrolysis rate GPE (S)” value was 0.07 (×10^−2) mg/min. In addition, in [11] ((R)-enantiomer), the “Hydrolysis rate EB (R)” value was 0.08 (×10^−2) mg/min. For the same molecule, in data set [11] ((S)-enantiomer), the “Hydrolysis rate EB (S)” value was 0.08 (×10^−2) mg/min. In addition, the “Hydrolysis rate SO (R)” value in data set [12] ((R)-enantiomer) is 0.05 (×10^−2) mg/min. In [12] ((S)-enantiomer), the “Hydrolysis rate SO (S)” value was 0.06 (×10^−2) mg/min. Also, the “enantiomer preference in hydrolysis of styrene oxide, in words” value (“enantiomer preference in hydrolysis” for short) in data set [12] was “both of (S)-styrene oxide and (R)-styrene oxide were hydrolyzed at an equal rate”.

B3: Rhodobacterium sp. HTCC2654 epoxide hydrolase rEEH (RH), SEQ ID NO: 32 (Maritimibacter alkaliphilus HTCC2654) (protein)
chain: MNDKTFIETNGIRLATRIEGDGPLVILVHGFPETAYSWRKQASPLVEAGYRVCIPDVRGYGNSDAPEAVSAYAMEVMTRDFLGLAQALSEVPAVIVGHDWGAPLAWNTARLFPEQFRAVAGLSVPYAPPGDVAPIDLYHKLFTDKGRFFYQVYFQDEGVAEAELEADVEDSLAKFYYAWSGDCPPNGWPNDKAHGDPVLKGLPRPDLPLPWLTQDDLDRYAADFRTSGFRGPLNRYRNQREDHAFLKAHPSNPIIQQPSLFLYGDRDPVLTMFRTPPEDLLPKTLADLRGVHRLPGVGHWTQQEAPEAVNKALIDWLATL
notes: as for B2
Regarding B3, in data set [13], the optimum temperature was 30-40 °C. Further, in data set [14], the Km was 5.2 ± 0.3 mM, the maximum rate (Vmax) stood at 54.1 µmol/min/mg, the kcat was 32 s⁻¹ and the kcat/Km was determined as 6160 M⁻¹ s⁻¹. In [15], the Km was determined as 4.1 ± 0.3 mM, the Vmax worked out at 11.3 µmol/min/mg, the kcat was found to be 6.7 s⁻¹ and the kcat/Km is 1630 M⁻¹ s⁻¹. In addition, the “enantiomer preference in hydrolysis” value in data set [12] is reported as “hydrolyzed (R)-enantiopure styrene oxide”.

B4: sEEH: 49 kDa epoxide hydrolase purified from Sphingopyxis alaskensis, SEQ ID NO: 28 (protein, listed as Erythrobacter litoralis)
chain: MSPAKSISLRRLLSTAISVAALGMTLQSSPSFASSAGPSTAITVSAAAAVAAPQDESIRPFHVSIPEEALTDLRRRLAETRWPDREKVSDASQGVQLDRLEPLVRYWGTDYDWRKGEARLNAVPQFITTIDGLDIQFIHIRSKHKGAMPLLMTHGWPGSPFELLKTVGPLTDPTAHGGKAEDAFDLIMPTYPGYGFSGKPNEAWDPARVARAWDVLMKRLGYKNYVSQGGDWGAIISQVLAVQAPEGLLGIHTNMPGTVPPGVLKLVRAKQPAPDSYSPEEKIAYAGLETFYGKGFGYAEMMNTRPQTLGYGLSDSPVGLAAFLYEKIATWTDSGGNPESVLTRDEILDNITLYWLTNTGTSSSRSYWDAAQGPGGPFNAIEISKVPVAVTVFPGEIYRAPRSWGEKSFKKLIYWNEVDKGGHFAAWEQPELFAAEIRAAFRPLREKK
As for B4, in [13], the “optimum pH” value was “neutral pH”. Besides, the “enantiomer preference in hydrolysis” value in [12] was “not enantioselective”.

B5: Novosphingobium aromaticivorans epoxide hydrolase nEEH (Novo), SEQ ID NO: 30 (Novosphingobium aromaticivorans DSM 12444) (protein)
chain: MNVAPFVVDIPRGEIEDLHRRIDMTRWPEKETVDDWSQGTPLGALQDFVSYWRGGYDWYACQRMLNDWGMFETEIDGVAIRFLHVRSAQADARPLLLTHGWPGSILEFRRCIAPLTRPEEHGGTAADAFHLVIPCLPGYGFSGKPTRKGWSVQKIAQAWGELMKRLGYESWLAQGGDWGSAVTTAIGALKVEGCAGIHLNMPIARPLPEDLAAPTPEELRALTALQHYQDWDSGYSKEQATRPQTVGYGLVDSPVGLAGWIYEKMWAWTDNEGAPEDALSRDDMLDNIMLYWLTAAGASSARLYWESFASFGPSQIDIPAAASAFPKEIIPAPRKWFERNCSKLVYWGELEKGGHFAAWEQPEAFVKELRAAFSLMC
Turning to B5, in [16], the Km is given as 6 ± 0.3 mM, the Vmax was determined as 40 µmol/min/mg, the kcat worked out at 27.8 s⁻¹ and the kcat/Km was found to be 4630 M⁻¹ s⁻¹. In data set [17], the Km was found to be 4 ± 0.3 mM, the Vmax worked out at 18.7 µmol/min/mg, the kcat came out at 13 s⁻¹ and the kcat/Km was 3240 M⁻¹ s⁻¹. In [13], the “optimum pH” value was “neutral pH”. The “enantiomer preference in hydrolysis” value in data set [12] was “not enantioselective”.

(Values after patent US8030048B2, “Enantioselective epoxide hydlrolase and method for preparing and enantiopure epoxide using the same” (Korea Ocean Research and Development Institute, priority 2005, dated 2011).)
